From patent US6306273A, “Methods and compositions for conducting processes in microfluidic devices” (Aclara BioSciences, Inc., priority 1999, dated 2001) come the findings set out here.

Ends that are not written are not given here. * marks the point of attachment. FITC = O=C1OC2(c3ccc(O)cc3Oc3cc(O)ccc32)c2ccc(NC(=S)*)cc21

This data set is described as follows: Separation of FITC labeled peptides in dynamically coated chip; charge from migration time relative to EOF. Type of data set: physicochemical. Particulars: 0.05% ammonium guar; determined by migration time relative to EOF. An excerpt:
The coating procedure and the separation conditions were the same as described previously. The surface modifying polymer was 0.05% ammonium guar. Three FITC labeled peptides (obtained from AnaSpec, San Jose, Calif.), which differed by one charge from each other (FITC-KKAA, FITC-KKKA and FITC-KKKK), were separated and detected 0.5 cm from the injection point on the anodal side. […] FITC-KKKA and FITC-KKKK migrated electrophoretically against the EOF. The net charge of FITC-KKKK was greater than +1.

As to “FITC-KKAA: FITC labeled peptide, SEQ ID NO:1, from AnaSpec ({FITC}-KKAA)”, the net charge entry is “negatively charged”.
In the case of “FITC-KKKA: FITC labeled peptide, SEQ ID NO:2, from AnaSpec ({FITC}-KKKA)”, the net charge result is listed as “positive charged”.
